Measured values published in publication PMC11469336.

Biological target: ribosomes (crude ribosome pellet)
Experiment: co-sedimentation

half-time of dissociation after harringtonine (in wild-type cells): 15 min
half-time of dissociation after puromycin (in wild-type cells): 1 min
Substance: trimeric SEC61 complex (from UniProt P61619 1-476; P60468 1-96; P60059 1-68)
